Assay results taken from PMC12694930, “An allantoin-inducible glyoxylate utilization pathway in Pseudomonas aeruginosa” (Microbiology, 2025).

What was measured:
[1] = target: Hyi (PA1501), putative hydroxypyruvate isomerase from Pseudomonas aeruginosa (P. aeruginosa); test: AUC; analytical ultracentrifugation, sedimentation velocity (AUC-SV), of each purified protein alone
Hyi = target: T1, Hyi (Pseudomonas aeruginosa, UniProt Q9I3L1); test: 1H-NMR, disappearance of hydroxypyruvate peaks; format: biochemical; conditions: 50 mM sodium phosphate in D2O, 1 mM MgCl2, pD 7.0; 37 °C; likely isomerization with H/D exchange, product peak not seen
T1 construct: gene PA1501; full-length ORF in pET-19m, N-terminal His6 tag (cleavage clearly told only for Gcl), expressed in E. coli Rosetta, Ni-NTA; dimer in solution
T1 sequence (Q9I3L1 1-260): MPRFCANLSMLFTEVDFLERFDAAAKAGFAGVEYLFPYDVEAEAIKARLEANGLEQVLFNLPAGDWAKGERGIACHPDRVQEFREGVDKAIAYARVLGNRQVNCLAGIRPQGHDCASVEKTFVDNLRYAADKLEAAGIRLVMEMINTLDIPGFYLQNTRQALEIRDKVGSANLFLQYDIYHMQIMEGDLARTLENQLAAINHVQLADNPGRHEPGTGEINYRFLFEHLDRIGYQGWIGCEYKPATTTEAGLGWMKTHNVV

Gcl [2] = target: T2, Gcl (Pseudomonas aeruginosa, UniProt Q9I3L0); test: GlxR-coupled NADH oxidation with added FAD; yellow protein ([…] nm); format: biochemical; conditions: 100 µM FAD roughly doubled activity; 37 °C
T2 construct: full-length ORF in pET-19m, N-terminal His6 tag cut with TEV protease, expressed in E. coli Rosetta, Ni-NTA
T2 sequence (Q9I3L0 1-591): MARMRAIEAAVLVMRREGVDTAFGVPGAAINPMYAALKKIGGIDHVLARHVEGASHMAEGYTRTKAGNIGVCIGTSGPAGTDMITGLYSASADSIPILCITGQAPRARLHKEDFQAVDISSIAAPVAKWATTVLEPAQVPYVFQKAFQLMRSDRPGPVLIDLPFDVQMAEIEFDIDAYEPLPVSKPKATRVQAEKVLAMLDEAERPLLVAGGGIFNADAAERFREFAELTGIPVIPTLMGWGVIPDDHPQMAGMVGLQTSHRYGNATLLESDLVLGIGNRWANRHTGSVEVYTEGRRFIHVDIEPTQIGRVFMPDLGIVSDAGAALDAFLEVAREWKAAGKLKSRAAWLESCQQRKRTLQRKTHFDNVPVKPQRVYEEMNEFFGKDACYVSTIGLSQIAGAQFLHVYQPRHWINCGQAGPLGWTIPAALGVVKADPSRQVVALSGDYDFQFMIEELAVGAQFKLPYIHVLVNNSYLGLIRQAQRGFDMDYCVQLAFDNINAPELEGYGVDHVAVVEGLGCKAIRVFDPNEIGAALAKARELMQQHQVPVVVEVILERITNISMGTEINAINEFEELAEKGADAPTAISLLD

Gcl [3] = target: T2, Gcl; test: 1H-NMR, decrease of hydrated glyoxylate peak; format: biochemical; conditions: 50 mM sodium phosphate in D2O, 1 mM MgCl2, pD 7.0; 37 °C; 22 h; no Hyi
purified protein [4] = substrate: O=C(O)C(=O)CO; test: purified protein; format: biochemical, Pseudomonas aeruginosa; conditions: 0.2 mM NADH, 20 mM MOPS, pH 7.5, 37 °C, h = 1.6 ± 0.2, some TSA may be present by tautomerization, no Hyi
purified protein [5] = substrate: O=CC(O)C(=O)O; test: purified protein; format: biochemical, Pseudomonas aeruginosa; conditions: TSA made in situ by Gcl from 0-10 mM glyoxylate (concentration varied was glyoxylate, so apparent), 0.2 mM NADH, 20 mM MOPS, 37 °C, no Hyi
[6] = target: the molecule itself; test: AUC; analytical ultracentrifugation, sedimentation velocity (AUC-SV), of each purified protein alone

Hyi (PA1501), putative hydroxypyruvate isomerase from Pseudomonas aeruginosa (enzyme)
stoichiometry N [1]: 2

O=C(O)C(=O)CO [hydroxypyruvate]
1H-NMR, disappearance of hydroxypyruvate peaks (Hyi): In the presence of Hyi, both hydroxypyruvate peaks had lessened in intensity

Cc1cc2nc3c(=O)[nH]c(=O)nc-3n(C[C@H](O)[C@H](O)[C@H](O)COP(=O)(O)OP(=O)(O)OC[C@H]3O[C@@H](n4cnc5c(N)ncnc54)[C@H](O)[C@@H]3O)c2cc1C [flavin adenine dinucleotide]
GlxR-coupled NADH oxidation with added FAD; yellow protein (445 nm) (Gcl [2]): FAD supplementation roughly doubled the enzyme activity

O=CC(=O)O [glyoxylate]
1H-NMR, decrease of hydrated glyoxylate peak (Gcl [3]): In the presence of Gcl, this hydrated glyoxylate peak slowly diminished in intensity

B1: GlxR (PA1500), tartronate semialdehyde (TSA) reductase from Pseudomonas aeruginosa (enzyme, P. aeruginosa, UniProt Q9I3L2 1-296, looked up)
chain: MAKIGFIGTGIMGKPMAQNLQKAGHSLFLSTHHDAAPADLLEAGAIALANPKEVAQEAEFIIVMVPDTPQVEDVLFRKDGIAEGAGPNKVVIDMSSISPTATKGFAEKIKATGAQYLDAPVSGGEVGAKAATLSIMVGGCPNTFERALPLFQAMGKNITRVGGNGDGQTAKVANQIIVALNIQAVAEALLFAARNGADPAKVREALMGGFASSRILEVHGERMVKGTFDPGFRISLHQKDLNLALAGARELNLNLPNTANAQQVFSTCAAIGGSNWDHSALIKGLEHMANFSIRDE
notes: GlxR, tartronate semialdehyde reductase, ORF PA1500 of P. aeruginosa strain PAO1; the ORF was tagged and over-expressed; The methods state TEV cleavage of the His6 tag 'For Gcl' but then speak of 'each of the over-expressed proteins'; whether the tag of GlxR was removed is not clear; For crystallisation the elution and dialysis buffers differed (PBS based); also called apo-GlxR; GlxRα; source: E. …
K0.5 (purified protein [4]): 16.7 mM
kcat (purified protein [4]): 33.5 s⁻¹
Km (purified protein [5]): 800 µM
kcat (purified protein [5]): 34.7 s⁻¹
stoichiometry N [6]: 4
